Test results as given in US8975044B2, “Polynucleotides encoding for frizzled-binding agents and uses thereof” (OncoMed Pharmaceuticals, Inc., priority 2008, dated 2015).

Key:
Axin2 = Axin2 mRNA level in A549 cells by qPCR; format: cell-based, human; conditions: 5-0.008 μg/ml, 24 hours, relative to LZ1 control
Procedure: A549 cells are human lung carcinoma cells in which the Axin2 gene is highly expressed, translating endogenous activity of Wnt signaling. Axin2 is a well know Wnt target gene that responds to activation of the pathway by up-regulating its transcription and eventually down-regulating Wnt signaling through a feed-back loop mechanism. This system was used to test the impact of the anti-Fzd Abs on Axin2 mRNA levels by qPCR.
12-well plates were seeded with 30,000 A549 cells per well and grown for 3 days in DMEM+10% FBS. Antibodies were added at varying concentrations (5 1, 0.2, 0.04, 0.008 μg/ml) for 24 hours and total RNA was extracted from the cells. LZ1, a nonbinding antibody, was used as negative control at only the highest concentration.
30,000 A549 cells were seeded into 12-well plates and grown for 3 days in DMEM+10% FBS. Anti-FZD antibody 18R5 or 44R24 were added at varying concentrations (5, 1, 0.2, 0.04, 0.008 ug/ml), and LZ1, a nonbinding antibody, was used as a negative control at only the highest concentration. RNA was made 24 hours post treatment and then treated with Dnase.
Axin2 is known to be a robust target gene in Wnt signaling and its expression level was examined by doing a Taqman relative expression (ΔΔCT) assay using an Applied Biosystems 7900 HT machine. 50 ng of RNA was used per point in triplicate and a GUSB probe was used for endogenous control. […]

Wnt target genes = assay: qPCR of Wnt target genes in tumor of OMP-PN13-bearing mice; format: in vivo, NOD/SCID mice
Procedure: Frozen OMP-PN13 tumor cells that have been passaged twice in mice were obtained from Oncomed's tumor bank. They were thawed and injected subcutaneously into the left flank of NOD/SCID mice immediately following thawing. ˜ 25,000 viable cells were injected per animal. The mice were monitored weekly for tumor growth. After their onset, the size of the tumors was measured once weekly by caliper. 200-300 mm^3 tumor-bearing mice were dispatched in treatment groups that each contained 5 animals. […] Ab treatment was initiated the day after randomization. LZ1 was used as the negative control Ab. 3 doses of 10 mg/kg of Ab were administered via intra-peritoneal injection over a 12-day period. Mice were euthanized 24 hours after the last injection. Tumor, duodenum and liver were harvested.
Total RNAs were also extracted from tumor, duodenum and liver for Wnt target gene expression analyses using qPCR.
Tissues were immediately transferred into RNAlater (QIAGEN) at the time of harvest. RNA was extracted using the QIAGEN RNeasy for Fibrous Tissue mini kit according to the manufacturer instructions. […] All 5 tumors of each treatment group were analyzed. […] ABI SDS 2.2.1 software was used to analyze the data and calculate DeltaCt values that were converted into relative quantities. […] Fold inhibition factors were then calculated relative to control antibody (LZ1).

FZD8 [1] = molecular target: T1, FZD8 (Homo sapiens, UniProt Q9H461); assay: Biacore affinity to recombinant Fzd Fc protein; format: binding; conditions: IgG antibody; Fzd Fc immobilized on CM5 Biacore chip
T1 construct: Fc
T1 sequence (Q9H461 28-157 limits assumed): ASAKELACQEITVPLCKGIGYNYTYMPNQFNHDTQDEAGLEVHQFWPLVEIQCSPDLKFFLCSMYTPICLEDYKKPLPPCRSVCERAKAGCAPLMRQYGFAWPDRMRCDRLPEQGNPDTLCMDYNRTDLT
Procedure: The KDs of 18R8 and 18R5 antibodies were determined using the Biacore 2000 system from Biacore Lifescience (GE Healthcare). Specifically, purified anti-Fzd7 antibodies were serially diluted in 2-fold increments from 100 to 0.78 nM in HBS-P (0.01 M HEPES pH 7.4, 0.15 M NaCl, 0.005% v/v Surfactant P20). Each dilution was tested against recombinant Fzd Fc proteins immobilized onto a CM5 Biacore chip. The association and dissociation rates were measured and KD values determined using the Biaevaluation software program (Table 5, below).

[2] = system: MMTV-WNT1 tumor derived cells; assay: MMTV-WNT1 tumor growth; format: in vivo, NOD/SCID mice; conditions: 10 mg/kg intra-peritoneal twice weekly; p=0.002
Procedure: Female NOD/SCID mice were injected at age 5-7 weeks with 50,000 mouse mammary tumor virus (MMTV)-WNT1 tumor derived cells in the upper right mammary fat pad. […] Tumors from these mice were dissociated and these dissociated tumor cells used for tumor propagation purposes. Mice with tumor cells implanted in the mammary fat pad were monitored twice a week. Once tumors were palpable, tumors were measured twice weekly and tumor volume was determined using the formula ½(a×b^2); where a=length, and b=breadth. Data are expressed as mean and mean±S.E.M. Group means were compared using Student's two-tailed, unpaired t test. […] On day 19, mice with average tumor volume of 44 mm^3 were randomized into 2 groups of 10 animals each. Animals were injected with either control antibody, or 18R5 IgG antibody (10 mg/kg). Administration of the antibodies was performed via injection into the intra-peritoneal cavity, twice weekly.

FZD8 [3] = molecular target: T2, FZD8 (Homo sapiens, UniProt Q9H461, E68Q/V69L); assay: Epitope mapping by FACS on FZD8 Fri domain variants on HEK293 cells; format: binding; conditions: amino acids 68-69 mutated from EV to QL
T2 construct: N-terminus of the Fri domain of FZD8 in turn fused to the transmembrane domain and intracellular domain of CD4 protein; expressed in transfected cells; host or cells: HEK293
T2 sequence (Q9H461 28-158 E68Q/V69L): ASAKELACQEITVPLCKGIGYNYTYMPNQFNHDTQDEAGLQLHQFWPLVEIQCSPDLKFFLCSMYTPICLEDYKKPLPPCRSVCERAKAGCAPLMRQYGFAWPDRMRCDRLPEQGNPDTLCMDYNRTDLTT
Procedure: To identify the FZD epitope recognized by the 18R8 IgG antibody, epitope mapping was performed. Flow cytometry analysis of cell surface expressed FZD was utilized to measure antibody binding. Mammalian expression plasmid vectors comprising a CMV promoter upstream of polynucleotides that encode an N-terminal signal sequence FLAG epitope tag fused to the N-terminus of the Fri domain of FZD8 in turn fused to the transmembrane domain and intracellular domain of CD4 protein were generated by standard recombinant technology. This expression construct allows expression of the FZD8 Fri domain on the cell surface, as well as expression of a FLAG epitope tag to monitor expression. Site-direct mutagenesis was then used to modify selected amino acids within the extracellular domain of FZD. HEK293 cells were co-transfected with expression vectors encoding the FZD and the transfection marker GFP. Forty-eight hours post-transfection, cells were collected in suspension and incubated on ice with anti-FZD antibody or control IgG to detect background antibody binding. The cells were washed and primary antibodies detected with anti-antibody secondary antibodies conjugated to a fluorescent chromophore. Labeled cells were then analyzed by flow cytometry to measure the binding of anti-FZD antibody to cell surface FZD.
Epitope mapping for the anti-FZD antibody 44R24 was performed in a manner similar to that described above in Example 5 for the antibodies 18R8 and 18R5. The ability of 44R24 to bind to a similar epitope as 18R8 was assessed by flow cytometry using a series of amino acid variants of FZD8 previously shown to disrupt binding of 18R8 (see Example 5 and FIGS. 6 and 7).

B1: 44R24: anti-FZD5/8 IgG antibody, VH SEQ ID NO:85, VL SEQ ID NO:86; ATCC deposit no. PTA-10311 (antibody, V domains shown)
VH: EVQLVESGGGLVQPGGSLRLSCAASGFTFSSYYITWVRQAPGKGLEWVSTISYSSSNTYYADSVKGRFTISRDNSKNTLYLQMNSLRAEDTAVYYCARSIVFDYWGQGTLVTVSS
VL: DIELTQPPSVSVAPGQTARISCSGDALGNRYVYWYQQKPGQAPVLVIPSGIPERFSGSNSGNTATLTISGTQAEDEADYYCGSWDTRPYPKYVFGGGTKLTVLG
modifications: 44R24 VH; 44R24 VL
notes: ATCC deposit no; PTA-10311
Axin2
  inhibition of basal level of axin2 gene expression: inhibit Axin2 basal levels
Wnt target genes; fold relative to control antibody LZ1, 3 doses of 10 mg/kg over 12 days
  tumor Axin2: −1.8x

B2: 18R5: human anti-FZD antibody; VH SEQ ID NO:10 (as 18R8), VL SEQ ID NO:14; binds FZD1, 2, 5, 7, 8 (antibody, V domains shown)
VH: EVQLVESGGGLVQPGGSLRLSCAASGFTFSHYTLSWVRQAPGKGLEWVSVISGDGSYTYYADSVKGRFTISSDNSKNTLYLQMNSLRAEDTAVYYCARNFIKYVFANWGQGTLVTVSS
VL: DIELTQPPSVSVAPGQTARISCSGDNIGSFYVHWYQQKPGQAPVLVIYDKSNRPSGIPERFSGSNSGNTATLTISGTQAEDEADYYCQSYANTLSLVFGGGTKLTVLG
modifications: 18R5/18R8 heavy chain variable region (VH); 18R5 light chain variable region (VL)
FZD8 [1]
  Kd: 5.8 nM
Axin2
  inhibition of basal level of axin2 gene expression: inhibit Axin2 basal levels
[2]
  tumor growth compared to control antibody: completely abolished tumor growth
Wnt target genes; relative to LZ1
  inhibition of Wnt target gene in tumor: 2.3 ×
FZD8 [3]
  binding to FZD8 variant: reduced staining

B3: 18R8: human anti-FZD antibody from phage display; VH SEQ ID NO:10, VL SEQ ID NO:12; binds FZD1, 2, 5, 7, 8 (antibody, V domains shown)
VH: EVQLVESGGGLVQPGGSLRLSCAASGFTFSHYTLSWVRQAPGKGLEWVSVISGDGSYTYYADSVKGRFTISSDNSKNTLYLQMNSLRAEDTAVYYCARNFIKYVFANWGQGTLVTVSS
VL: DIELTQPPSVSVAPGQTARISCSGDKLGKKYASWYQQKPGQAPVLVIYEKDNRPSGIPERFSGSNSGNTATLTISGTQAEDEADYYCSSFAGNSLEVFGGGTKLTVLG
modifications: 18R5/18R8 heavy chain variable region (VH); 18R8 light chain variable region (VL)
FZD8 [1]
  Kd: 29.3 nM
[2]
  tumor growth compared to control antibody: virtually eliminated
FZD8 [3]
  binding to FZD8 variant: similarly lost
